Source: patent US20250368745A1 (published 2025)
Numbering of substitutions follows the chain as printed. Numbers in names are those of the source.

Columns and labels:
cynomolgus IL-18BP = target: T1, cynomolgus IL-18BP (cynomolgus monkey); test: BLI, apparent KD
T1 construct: also called cyno IL-18BP; cyIL-18BP
T1 chain: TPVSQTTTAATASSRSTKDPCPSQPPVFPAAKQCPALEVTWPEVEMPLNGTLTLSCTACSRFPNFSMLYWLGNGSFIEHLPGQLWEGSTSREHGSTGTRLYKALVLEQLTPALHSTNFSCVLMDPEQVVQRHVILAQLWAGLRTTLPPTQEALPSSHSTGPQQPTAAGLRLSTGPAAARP

human IL-18BP [1] = target: T2, human IL-18BP (human, UniProt O95998 31-194); test: BLI, apparent KD
T2 construct: UniProt printed as 095998; also called hIL-18BP
T2 sequence: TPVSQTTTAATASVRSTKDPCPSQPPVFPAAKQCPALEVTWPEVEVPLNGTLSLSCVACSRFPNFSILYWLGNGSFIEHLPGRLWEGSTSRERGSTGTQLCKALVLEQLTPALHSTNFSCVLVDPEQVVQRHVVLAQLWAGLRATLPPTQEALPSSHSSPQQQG

human IL-18BP [2] = target: T3, human IL-18BP (human, UniProt O95998 31-194); test: BLI, apparent KD, one conc.
T3 construct: also called hIL-18BP; Mature Human Isoform A
T3 sequence: T2 sequence

B1: SA301a HC-H52D (antibody, name in Kabat numbering, V domains shown)
VH: QVQLQESGPGLVKPSQTLSLTCTVSGYSITSDYNSHWIRQPPGKGLEWIGYIDYSGSTNYNPSLKSRVTISRDTSKNQFSLKLSSVTAADTAVYYCARNYGSIYVNYFDYWGQGTLVTVSS
VL: EIVLTQSPATLSLSPGERATLSCSASSSVSYMYWYQQKPGQAPRPLIYRTSNLASGIPARFSGSGSGTDFTLTISSLEPEDFAVYYCQQYHSYPTFGGGTKVEIK
notes: IgG1 kappa
Kd (cynomolgus IL-18BP): 0.91 nM | Kd (human IL-18BP [1]): 0.35 nM

B2: SA301a HC-H52G (antibody, name in Kabat numbering, V domains shown)
VH: B1 VH with D53G
VL: B1 VL
notes: IgG1 kappa
Kd (cynomolgus IL-18BP): 1.66 nM | Kd (human IL-18BP [1]): 1.68 nM

B3: SA301a HC-H52I (antibody, name in Kabat numbering, V domains shown)
VH: B1 VH with D53I
VL: B1 VL
notes: IgG1 kappa
Kd (cynomolgus IL-18BP): 1.72 nM | Kd (human IL-18BP [1]): 0.53 nM

B4: SA301a HC-H52N (antibody, name in Kabat numbering, V domains shown)
VH: B1 VH with D53N
VL: B1 VL
notes: IgG1 kappa
Kd (cynomolgus IL-18BP): 2.83 nM | Kd (human IL-18BP [1]): 1.04 nM

B5: SA301a HC-H52R (antibody, name in Kabat numbering, V domains shown)
VH: B1 VH with D53R
VL: B1 VL
notes: IgG1 kappa
Kd (cynomolgus IL-18BP): 1.55 nM | Kd (human IL-18BP [1]): 1.36 nM

B6: SA301a HC-H52S (antibody, name in Kabat numbering, V domains shown)
VH: B1 VH with D53S
VL: B1 VL
notes: IgG1 kappa
Kd (cynomolgus IL-18BP): 1.16 nM | Kd (human IL-18BP [1]): 0.63 nM

B7: SA301a HC-H52V (antibody, name in Kabat numbering, V domains shown)
VH: B1 VH with D53V
VL: B1 VL
notes: IgG1 kappa
Kd (cynomolgus IL-18BP): 0.88 nM | Kd (human IL-18BP [1]): 0.34 nM

B8: SA301a HC-I51A (antibody, name in Kabat numbering, V domains shown)
VH: B1 VH with I52A, D53H
VL: B1 VL
notes: IgG1 kappa
Kd (cynomolgus IL-18BP): 0.81 nM | Kd (human IL-18BP [1]): 0.73 nM

B9: SA301a HC-I51D (antibody, name in Kabat numbering, V domains shown)
VH: B1 VH with I52D, D53H
VL: B1 VL
notes: IgG1 kappa
Kd (cynomolgus IL-18BP): 2.17 nM | Kd (human IL-18BP [1]): 1.99 nM

B10: SA301a HC-I51E (antibody, name in Kabat numbering, V domains shown)
VH: B1 VH with I52E, D53H
VL: B1 VL
notes: IgG1 kappa
Kd (cynomolgus IL-18BP): 0.95 nM | Kd (human IL-18BP [1]): 1.53 nM

B11: SA301a HC-I51F (antibody, name in Kabat numbering, V domains shown)
VH: B1 VH with I52F, D53H
VL: B1 VL
notes: IgG1 kappa
Kd (cynomolgus IL-18BP): 1.55 nM | Kd (human IL-18BP [1]): 2.38 nM

B12: SA301a HC-I51G (antibody, name in Kabat numbering, V domains shown)
VH: B1 VH with I52G, D53H
VL: B1 VL
notes: IgG1 kappa
Kd (cynomolgus IL-18BP): 0.87 nM | Kd (human IL-18BP [1]): 0.92 nM

B13: SA301a HC-I51K (antibody, name in Kabat numbering, V domains shown)
VH: B1 VH with I52K, D53H
VL: B1 VL
notes: IgG1 kappa
Kd (cynomolgus IL-18BP): 0.59 nM | Kd (human IL-18BP [1]): 0.49 nM

B14: SA301a HC-I51L (antibody, name in Kabat numbering, V domains shown)
VH: B1 VH with I52L, D53H
VL: B1 VL
notes: IgG1 kappa
Kd (cynomolgus IL-18BP): 0.64 nM | Kd (human IL-18BP [1]): 0.69 nM

B15: SA301a HC-I51M (antibody, name in Kabat numbering, V domains shown)
VH: B1 VH with I52M, D53H
VL: B1 VL
notes: IgG1 kappa
Kd (cynomolgus IL-18BP): 0.62 nM | Kd (human IL-18BP [1]): 0.56 nM

B16: SA301a HC-I51P (antibody, name in Kabat numbering, V domains shown)
VH: B1 VH with I52P, D53H
VL: B1 VL
notes: IgG1 kappa
Kd (cynomolgus IL-18BP): 1.93 nM | Kd (human IL-18BP [1]): 3.73 nM

B17: SA301a HC-I51R (antibody, name in Kabat numbering, V domains shown)
VH: B1 VH with I52R, D53H
VL: B1 VL
notes: IgG1 kappa
Kd (cynomolgus IL-18BP): 1.57 nM | Kd (human IL-18BP [1]): 2 nM

B18: SA301a HC-I51S (antibody, name in Kabat numbering, V domains shown)
VH: B1 VH with I52S, D53H
VL: B1 VL
notes: IgG1 kappa
Kd (cynomolgus IL-18BP): 0.82 nM | Kd (human IL-18BP [1]): 0.57 nM

B19: SA301a HC-I51T (antibody, name in Kabat numbering, V domains shown)
VH: B1 VH with I52T, D53H
VL: B1 VL
notes: IgG1 kappa
Kd (cynomolgus IL-18BP): 0.78 nM | Kd (human IL-18BP [1]): 0.67 nM

B20: SA301a HC-I51V (antibody, name in Kabat numbering, V domains shown)
VH: B1 VH with I52V, D53H
VL: B1 VL
notes: IgG1 kappa
Kd (cynomolgus IL-18BP): 0.55 nM | Kd (human IL-18BP [1]): 0.3 nM

B21: SA301a HC-I51Y (antibody, name in Kabat numbering, V domains shown)
VH: B1 VH with I52Y, D53H
VL: B1 VL
notes: IgG1 kappa
Kd (cynomolgus IL-18BP): 1.27 nM | Kd (human IL-18BP [1]): 1.46 nM

B22: SA301a HC-Y50A (antibody, name in Kabat numbering, V domains shown)
VH: B1 VH with Y51A, D53H
VL: B1 VL
notes: IgG1 kappa
Kd (cynomolgus IL-18BP): 3.8 nM | Kd (human IL-18BP [1]): 2.97 nM

B23: SA301a HC-Y50D (antibody, name in Kabat numbering, V domains shown)
VH: B1 VH with Y51D, D53H
VL: B1 VL
notes: IgG1 kappa
Kd (cynomolgus IL-18BP): 16.5 nM | Kd (human IL-18BP [1]): 5.28 nM

B24: SA301a HC-Y50E (antibody, name in Kabat numbering, V domains shown)
VH: B1 VH with Y51E, D53H
VL: B1 VL
notes: IgG1 kappa
Kd (cynomolgus IL-18BP): 8.97 nM | Kd (human IL-18BP [1]): 3.44 nM

B25: SA301a light chain variant S28H (antibody, V domains shown)
VH: B1 VH with D53H
VL: B1 VL with S28H
Kd (human IL-18BP [2]): 0.44 nM

B26: SA301a light chain variant S28F (antibody, V domains shown)
VH: B1 VH with D53H
VL: B1 VL with S28F
Kd (human IL-18BP [2]): 0.46 nM

B27: SA301a light chain variant S28G (antibody, V domains shown)
VH: B1 VH with D53H
VL: B1 VL with S28G
Kd (human IL-18BP [2]): 0.51 nM

B28: SA301a light chain variant S28M (antibody, V domains shown)
VH: B1 VH with D53H
VL: B1 VL with S28M
Kd (human IL-18BP [2]): 0.51 nM

B29: SA301a light chain variant S28E (antibody, V domains shown)
VH: B1 VH with D53H
VL: B1 VL with S28E
Kd (human IL-18BP [2]): 0.39 nM

B30: SA301a light chain variant S28T (antibody, V domains shown)
VH: B1 VH with D53H
VL: B1 VL with S28T
Kd (human IL-18BP [2]): 0.43 nM

B31: SA301a light chain variant S28P (antibody, V domains shown)
VH: B1 VH with D53H
VL: B1 VL with S28P
Kd (human IL-18BP [2]): 0.39 nM

B32: SA301a light chain variant S28Q (antibody, V domains shown)
VH: B1 VH with D53H
VL: B1 VL with S28Q
Kd (human IL-18BP [2]): 0.45 nM

B33: SA301a light chain variant S28K (antibody, V domains shown)
VH: B1 VH with D53H
VL: B1 VL with S28K
Kd (human IL-18BP [2]): 0.51 nM

B34: SA301a light chain variant V29H (antibody, V domains shown)
VH: B1 VH with D53H
VL: B1 VL with V29H
Kd (human IL-18BP [2]): 0.47 nM

B35: SA301a light chain variant V29L (antibody, V domains shown)
VH: B1 VH with D53H
VL: B1 VL with V29L
Kd (human IL-18BP [2]): 0.33 nM

B36: SA301a light chain variant V29R (antibody, V domains shown)
VH: B1 VH with D53H
VL: B1 VL with V29R
Kd (human IL-18BP [2]): 0.38 nM

B37: SA301a light chain variant V29G (antibody, V domains shown)
VH: B1 VH with D53H
VL: B1 VL with V29G
Kd (human IL-18BP [2]): 0.41 nM

B38: SA301a light chain variant V29Y (antibody, V domains shown)
VH: B1 VH with D53H
VL: B1 VL with V29Y
Kd (human IL-18BP [2]): 0.4 nM

B39: SA301a light chain variant V29N (antibody, V domains shown)
VH: B1 VH with D53H
VL: B1 VL with V29N
Kd (human IL-18BP [2]): 0.44 nM

B40: SA301a light chain variant V29D (antibody, V domains shown)
VH: B1 VH with D53H
VL: B1 VL with V29D
Kd (human IL-18BP [2]): 0.43 nM

B41: SA301a light chain variant V29A (antibody, V domains shown)
VH: B1 VH with D53H
VL: B1 VL with V29A
Kd (human IL-18BP [2]): 0.4 nM

B42: SA301a light chain variant V29M (antibody, V domains shown)
VH: B1 VH with D53H
VL: B1 VL with V29M
Kd (human IL-18BP [2]): 0.35 nM
